From patent US20250263466A1 (VIR BIOTECHNOLOGY, published 2025)
Where a chain is given by its changes, count along the chain named.

T1: MERS-CoV S protein (London1/2012) expressed on ExpiCHO cells (MERS-CoV, UniProt K9N5Q8 18-1353)
T1 sequence: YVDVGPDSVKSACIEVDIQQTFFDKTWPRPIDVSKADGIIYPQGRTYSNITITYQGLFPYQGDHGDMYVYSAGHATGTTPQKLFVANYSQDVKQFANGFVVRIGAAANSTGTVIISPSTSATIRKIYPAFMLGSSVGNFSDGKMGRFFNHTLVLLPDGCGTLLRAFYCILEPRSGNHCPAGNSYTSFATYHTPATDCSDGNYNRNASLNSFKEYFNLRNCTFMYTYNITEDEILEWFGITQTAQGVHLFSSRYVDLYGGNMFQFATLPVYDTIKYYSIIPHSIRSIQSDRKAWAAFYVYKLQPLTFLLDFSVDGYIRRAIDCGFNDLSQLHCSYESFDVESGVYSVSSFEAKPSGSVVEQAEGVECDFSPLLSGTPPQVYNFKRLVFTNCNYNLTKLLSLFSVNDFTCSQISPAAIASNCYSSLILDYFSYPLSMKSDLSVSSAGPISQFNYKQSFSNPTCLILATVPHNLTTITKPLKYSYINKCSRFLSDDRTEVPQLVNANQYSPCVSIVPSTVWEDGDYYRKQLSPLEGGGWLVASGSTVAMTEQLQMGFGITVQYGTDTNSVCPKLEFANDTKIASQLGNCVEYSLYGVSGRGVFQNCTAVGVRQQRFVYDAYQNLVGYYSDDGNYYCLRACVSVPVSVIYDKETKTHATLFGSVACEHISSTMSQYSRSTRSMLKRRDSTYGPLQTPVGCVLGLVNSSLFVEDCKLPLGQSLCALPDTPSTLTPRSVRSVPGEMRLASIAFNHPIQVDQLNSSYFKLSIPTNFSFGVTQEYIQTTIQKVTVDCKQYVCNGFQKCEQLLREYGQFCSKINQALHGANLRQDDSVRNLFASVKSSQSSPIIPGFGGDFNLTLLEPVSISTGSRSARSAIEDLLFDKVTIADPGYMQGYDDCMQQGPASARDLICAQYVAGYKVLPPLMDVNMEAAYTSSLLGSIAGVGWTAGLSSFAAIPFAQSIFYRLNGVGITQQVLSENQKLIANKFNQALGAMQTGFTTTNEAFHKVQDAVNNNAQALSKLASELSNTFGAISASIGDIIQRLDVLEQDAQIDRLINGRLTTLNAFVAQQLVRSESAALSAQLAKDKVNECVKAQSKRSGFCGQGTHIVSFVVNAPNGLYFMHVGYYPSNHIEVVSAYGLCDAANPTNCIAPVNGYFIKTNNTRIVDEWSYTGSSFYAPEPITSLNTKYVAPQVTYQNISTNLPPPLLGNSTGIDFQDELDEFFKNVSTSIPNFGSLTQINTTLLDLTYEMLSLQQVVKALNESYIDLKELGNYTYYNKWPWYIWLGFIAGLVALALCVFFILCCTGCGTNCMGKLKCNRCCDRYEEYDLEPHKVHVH

B1: nCoV-6 mAb (antibody, V domains shown)
VH: QVTLKESGPVLVKPTETLTLTCTVSVFSLSNARMGVSWIRQPPGKALEWLAHIFSSDQKSYSTSLKSRLTISKDTSKSQVVLTMTNMDPEDTGTYYCARINTAAYDYDSTTFDIWGQGTMVTVSS
VL: DIQMTQSPSSLSASVGDRVTITCRASQTISNYLNWYQQKPGKAPKLLLYAASSLQSGVPSRFSGSGSGTDFTLTISSLQLEDFATYYCQQSYSTPPTFGGGTKVEIK
B2: nCoV-8 mAb (antibody, V domains shown)
VH: EVLLVESGGGLVQPGRSLRLSCVVSGFTFDYYAMHWVRQAPGKGLEWVSGISWNSDNTDYADSVKGRFTISRDNAKNSLYLQMNSLKTEDTALYYCAKDISLVFWSVNPPRNGMDVWGQGTTVTVSS
VL: B1 VL with T28S, S30R, N31S, K45N, L48I, A50T, L80P, T94S, P96L
B3: nCoV-15 mAb (antibody, V domains shown)
VH: EVQLVESGGGLVTPGRSLRLSCTASGFTFGDYALSWFRQAPGKGLEWVAFIRSKAYGGTTEYAASVKGRFTISRDDSQIIVYLQMDSLKTEDTAVYYCSWIHRIVSWGQGTLVTVSS
VL: DIQMTQSPSSLSASEGDRVTITCQASQDISIYLNWFQQKPGKAPKLLIYEASNLKTGVPSRFSGSGSGTDFTFTISSLQPEDIATYYCQQYDNLPYTFGQGTKLEIK
B4: nCoV-3 mAb (antibody, V domains shown)
VH: EVQLLESGGGLVQPGGSLRLSCTASGFTFASYAMTWVRQAPGKGLEWVSTISGGGGDTYSADSVKGRFTISRDNSKSTLYLQMNSLRAADTALYYCARLESATQPLGYYFYGMDVWGQGTTVTVSS
VL: SYELTQPPSVSVSPGQTARITCSGDALPKQYAFWYQQRPGQAPVLVISKDSERPSGIPERFSGSSSGTTVTLTISGVQAEDEADYYCHSADISATSWVFGGGTKLTVV
B5: nCoV-12 mAb (antibody, V domains shown)
VH: QVQLVESGGGVVQPGRSLRLSCAGSGFTFSSFGLHWVRQAPGKGLEWLALISDEGRIKYYANSVKGRFFISRDNSKNTLYLQMNSLRGEDTAVYYCARDVKGHIVVMTSLDYWGQGALVTVSS
VL: DVVMTQSPLSLPVTLGQPASISCRSSQSLVSSDGDTSLSWFQQRPGQSPRRLIYEVSNRDSGVPDRFSGSGSGTDFTLKISRVEAEDVGVYYCMQGTHWPPTFGQGTKVEIK
B6: nCoV-17 mAb (antibody, V domains shown)
VH: QVQLVESGGGVVQPGRSLRLSCAASGFTFSSYAIHWVRQAPGKGLEWLAVISFDGRHKYYADSVKGRFTISRDNSKNTVYLQMNSLRVEDTAVYSCARDIRHLIVVVSDMDVWGQGTTVTVSS
VL: B5 VL with S31N, S39N, E55K, F67I, V109L
B7: nCoV-13 mAb (antibody, V domains shown)
VH: EVQLVESGGGLVKPGGSLRLSCAASGFTFSNYNMNWVRQAPGKGLEWVSSIGSSSTYIYSADSVKGRFTISRDNAMNSLFLQMKSLRAEDTAVYYCARGFERYYFDSWGQGTLVTVSS
VL: QSVLTQPPSASGTPGQRVTISCSGSTSNIGTNVVNWYQQLPGTAPKLLIYSNNQRPSWVPDRFSGSKSGTSASLAISGLQSEDEADYYCVAWDDILNAVVFAGGTKLTVL
B8: nCoV-9 mAb (antibody, V domains shown)
VH: QVLLVESGGGVVQPGMSLRLSCAASGFTFSSYAMHWVRQAPGKGLEWVAVISYDGSTKFYADSVRGRFPISRDNSKNTVYLQMNSLRPEDTAVYYCATVSVEGYTSGWYLGTLDFWGQGTPVTVSS
VL: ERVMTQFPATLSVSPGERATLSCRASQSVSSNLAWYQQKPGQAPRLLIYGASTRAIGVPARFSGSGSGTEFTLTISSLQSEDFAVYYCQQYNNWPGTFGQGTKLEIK
B9: nCoV-5 mAb (antibody, V domains shown)
VH: QMQLVQSGPEMKKPGTSVKVSCKASGFTFSKTTLQWVRQARGQRPEWIGWIVLGSGNTNYAHYFQARVTITRDMSTSTAYMELSSLSSEDTAVYYCAAEMATIQNYYYYYGMDVWGQGTTVTVSS
VL: DIQMTQSPSSLSASVGDRVTITCRASQSINYYLNWYQQKPGKAPNLLIYAASSLPGGVPSRFSGSGSGTDFTLTITSLQPEDFATYFCQQSYSTPPTFGQGTKLEIK
B10: nCoV-2 mAb (antibody, V domains shown)
VH: DVQLLESGGGLVQPGGSLRLSCAASGFSFSSYAMTWVRQAPGKGLEWVATMSASGDSTNDADSVKGRFTISRDNSKNTLFLQMNSLRPEDTAVYYCASPLRNYGDLLYWGQGTLVTVSS
VL: DIQMTQSPSTLSASVGDRVTITCRASQNIHRFLAWYQQKPGKAPKLLIYTASSLESGVPSRFSGSGFGTEFTLTISSLQPDDFATYYCQQYNSYSWTFGQGTKVEIK
B11: nCoV-14 mAb (antibody, V domains shown)
VH: QVQLVHSGAEVKKPGASVRVSCKASGYTYTAYYIHWLRQAPGQGLEWMGWINADNGDTHSVQKFQGRVTMTRDTSINTAYLEVSRLKSDDTAVYYCARGDVPVGTGWVFDFWGQGTLVTVSS
VL: DIQMTQSPSSLSASVGDSVTISCRASQTINNFLNWYQQKPGKAPNLLIYGAYNLQSGVPSRFSGSGSGTDFTLTISSLQPEDVAIYYCQQSLSMVTFGQGTRLDIK
B12: nCoV-7 mAb (antibody, V domains shown)
VH: QEQVVESGGGVVQPGKSLRLSCAASGFSLNDFAIHWVRQAPGKRLEWVAIISYDGRVKFYADSVKGRFTISRDSSVHLQMDSLRPEDTGLYYCARDSSWQSTGWPINWFDRWGRGTLVTVSS
VL: EIVLTQSPATLSLSPGQRATLSCRASQSVLSSLAWYQHKPGQAPRLLIYDASSRATGVPARFSGSGSETDFTLTISSLEPEDFAVYYCQQRSNWPPTFGQGTKVEIK
B13: nCoV-11 mAb (antibody, V domains shown)
VH: LVQLVESGGGVVQPGRSLRLSCAGSGFTFSSYGMHWVRQTPGKGLEWVAVISFDGRNKFYADPVKGRFTISRDNSKNTVFLELDSLTTEDTAFYYCARDDNLDRHWPLRLGGYWGQGTLVTVSS
VL: EIVMTQSPLSLPVTLGQPASISCRSSQDLLYNDGGTDLNWFQQRPGQSPRRLIYRVSNRDSGVPDRFSGSGSGSDFTLKISRVEAEDVGIYYCMQGAHWPPTFGPGTKVEIK
B14: nCoV-16 mAb (antibody, V domains shown)
VH: QVQLVESGGGVVQPGRSLRLSCAASGFTFSSYGMHWVRQAPGKGLEWVAFISYDGSNIQYADSVQGRFTISRDNSKTTLYLQMNSLRVEDTAMYYCAKDLFGYCRSTSCESLDDWGQGALVTVSS
VL: DIQLTQSPSFLSASVGDRVTITCRASQGISSYLAWYQQKPGKAPKLLIYAASTLQSGVPSRFSGTGYGTEFTLTISSLQPEDFATYYCQQLNNYPLTFGGGTKVEIK
B15: nCoV-18 mAb (antibody, V domains shown)
VH: QVQLVQSGAEVRQPGTSVKVSCKASGYTFMNNDITWVRQAPGQVLQWMGWIRPSNGNTNYAQKFQGRVTLTTDTSTNTAHMELRSLKSDDTAVYYCARQSHSTRGGWHFSPWGQGTLVTVSS
VL: DIQMTQSPSSLSASVGDRVTITCRPSQPISYFLNWYQQTPGKAPKLLIYAASSLQSGVPSRFSGSGSGTDFTLTISSLQPEDSATYYCQQSYSVPYTFGQGTKLEIK
B16: nCoV-4 mAb (antibody, V domains shown)
VH: QVQLVESGGGVVQPGRSLRLSCEASGFTLRTSSLHWVRQAPGKGLEWVAVISNDGATKFYADAVKGRFTISRDNSNNKIYLQLNGLKPEDTAVYYCARETRHYSHGLNWFDPWGQGTLVNVSS
VL: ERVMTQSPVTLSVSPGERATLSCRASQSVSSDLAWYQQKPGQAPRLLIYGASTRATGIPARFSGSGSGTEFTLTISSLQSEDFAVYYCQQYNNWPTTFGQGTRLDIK

Each binder was assayed against SARS-CoV S protein (Urbani strain) expressed on ExpiCHO cells (SARS-CoV, UniProt P59594 14-1255) (assay: flow cytometry on ExpiCHO cells transfected with SARS-CoV S).
B1: binds.
B2: binds.
B3: binds.
B4: binds.
B5: binds.
B6: binds.
B7: binds.
B8: binds.
B9: binds.
B10: binds.
B11: binds.
B12: binds.
B13: binds.
B14: binds.
B15: binds.

What follows are binders tested against T1, MERS-CoV S protein (London1/2012) … (assay: flow cytometry on ExpiCHO cells transfected with MERS-CoV S).
B1: no binding (tested: 10 µg/ml).
B2: no binding (tested: 1.5 µg/ml).
B3: no binding (tested: 0.8 µg/ml).
B4: no binding (tested: 10 µg/ml).
B5: no binding (tested: 0.8 µg/ml).
B6: no binding (tested: 10 µg/ml).
B7: no binding (tested: 7 µg/ml).
B16: no binding (tested: 10 µg/ml).
B8: no binding (tested: 8.5 µg/ml).
B9: no binding (tested: 1 µg/ml).
B10: no binding (tested: 10 µg/ml).
B11: no binding (tested: 10 µg/ml).
B12: no binding (tested: 2 µg/ml).
B13: no binding (tested: 10 µg/ml).
B14: no binding (tested: 10 µg/ml).
B15: no binding (tested: 10 µg/ml).
